Article PMC10445657

T1: RORα S100D (human, UniProt P35398 1-523, S100D)
T1 sequence: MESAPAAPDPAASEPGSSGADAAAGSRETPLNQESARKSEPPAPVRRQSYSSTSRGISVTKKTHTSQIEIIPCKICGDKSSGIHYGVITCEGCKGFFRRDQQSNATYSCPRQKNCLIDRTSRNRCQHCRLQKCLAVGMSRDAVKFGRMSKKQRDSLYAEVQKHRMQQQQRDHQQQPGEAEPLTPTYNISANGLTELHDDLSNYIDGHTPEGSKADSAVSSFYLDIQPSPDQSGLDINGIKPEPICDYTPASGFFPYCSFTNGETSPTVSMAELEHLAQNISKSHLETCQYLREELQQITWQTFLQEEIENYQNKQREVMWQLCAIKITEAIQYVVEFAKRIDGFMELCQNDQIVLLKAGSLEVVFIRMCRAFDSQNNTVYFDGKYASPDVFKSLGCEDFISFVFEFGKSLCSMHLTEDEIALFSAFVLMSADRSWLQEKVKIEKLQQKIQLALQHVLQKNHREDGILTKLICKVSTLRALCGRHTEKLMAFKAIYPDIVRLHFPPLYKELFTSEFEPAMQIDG

B1: HRE probe (dsDNA)
DNA 1: GATCTCGACAGTGACCCTTTTAACCAGGTCAGTGAG
DNA 2: CTCACTGACCTGGTTAAAAGGGTCACTGTCGAGATC
B2: RORE probe (dsDNA)
DNA 1: GATCTCGACTCGTATATCAAGGTCATGCTG
DNA 2: CAGCATGACCTTGATATACGAGTCGAGATC

Target: T1, RORα S100D
Assay: EMSA

Binder	binding result
B1	no binding
B2	no binding
